Measured values from US11491212.

B1: FIXa-K247N/N249S/R318Y/T343R/E410N (protein)
chain 1: not shown
chain 2: not shown
B2: FIXa-Y155F/R318Y/T343R/R403E/E410N (protein)
chain 1: not shown
chain 2: not shown
B3: FIXa-Y155F/K247N/N249S/R338E/T343R/E410N (protein)
chain 1: not shown
chain 2: not shown
B4: FIXa-Y155F/R318Y/R338E/T343R/E410N (protein)
chain 1: not shown
chain 2: not shown
B5: FIXa-Y155F/K247N/N249S/R338E/R403E/E410N (protein)
chain 1: not shown
chain 2: not shown
B6: FIXa-Y155F/K247N/N249S/R318Y/T343R/E410N (protein)
chain 1: not shown
chain 2: not shown
B7: FIXa-Y155F/K247N/N249S/R338E/T343R/R403E (protein)
chain 1: not shown
chain 2: not shown
B8: FIXa-K247N/N249S/R338E/T343R/E410N (protein)
chain 1: not shown
chain 2: not shown
B9: FIXa-R338E/T343R/R403E/E410N (protein)
chain 1: not shown
chain 2: not shown
B10: FIXa-Y155F/K247N/N249S/T343R/R403E/E410N (protein)
chain 1: not shown
chain 2: not shown
B11: FIXa-K247N/N249S/R338E/R403E/E410N (protein)
chain 1: not shown
chain 2: not shown
B12: FIXa-R318Y/R338E/T343R/R403E (protein)
chain 1: not shown
chain 2: not shown
B13: FIXa-Y155F/R318Y/R338E/T343R/R403E (protein)
chain 1: not shown
chain 2: not shown

target: Factor X (FX), P00742
Sequence (P00742 whole entry, looked up): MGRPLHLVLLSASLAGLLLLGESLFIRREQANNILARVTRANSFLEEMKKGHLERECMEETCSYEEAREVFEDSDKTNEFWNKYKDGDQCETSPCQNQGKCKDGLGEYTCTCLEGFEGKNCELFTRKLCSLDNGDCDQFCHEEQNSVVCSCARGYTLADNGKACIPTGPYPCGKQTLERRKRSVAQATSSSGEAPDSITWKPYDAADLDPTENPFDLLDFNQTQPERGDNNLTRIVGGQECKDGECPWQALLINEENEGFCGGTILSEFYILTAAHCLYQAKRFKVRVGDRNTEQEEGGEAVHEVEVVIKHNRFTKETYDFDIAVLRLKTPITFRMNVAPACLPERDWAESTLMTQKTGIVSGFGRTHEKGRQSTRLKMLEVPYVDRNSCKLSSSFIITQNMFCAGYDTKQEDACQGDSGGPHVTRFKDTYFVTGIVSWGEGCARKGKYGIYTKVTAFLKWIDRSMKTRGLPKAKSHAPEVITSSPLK

Row | Protein | kcat [s⁻¹] | KM [µM]
1 | B1 | 6.1 | 
2 | B2 |  | 0.034
3 | B3 | 4.8 | 
4 | B4 |  | 0.0256
5 | B5 |  | 0.0487
6 | B6 | 8.1 | 
7 | B7 | 14.6 | 
8 | B8 | 7.9 | 
9 | B9 |  | 0.0347
10 | B10 | 15 | 
11 | B11 |  | 0.025
12 | B12 |  | 0.0443
13 | B13 |  | 0.034

target: Factor X, P00742
Sequence (P00742 whole entry, looked up): as above

Row | Protein | KM [µM] | kcat/KM [M⁻¹ s⁻¹]
14 | B1 | 0.0401 | 
15 | B2 |  | 2.6e+08
16 | B3 | 0.027 | 
17 | B4 |  | 3.7e+08
18 | B5 |  | 1.1e+08
19 | B6 | 0.0381 | 
20 | B7 | 0.0251 | 
21 | B8 | 0.0275 | 
22 | B9 |  | 3e+08
23 | B10 | 0.052 | 
24 | B11 |  | 1.9e+08
25 | B12 |  | 1.6e+08
26 | B13 |  | 2.6e+08
